Earlier results on one molecule are cited in patent US20260263505A1, “Uses of Compositions Comprising a Prebiotic Component” (Mead Johnson Nutrition Company, priority 2021, published 2026).

For this data set, the system named is Rats. To be noted: after four weeks of diet, acute inescapable stressor.

B1: lactoferrin: multifunctional iron-binding glycoprotein naturally present in milk; test diet of Mika et al. (protein, UniProt P24627 20-708, looked up)
Lactotransferrin: APRKNVRWCTISQPEWFKCRRWQWRMKKLGAPSITCVRRAFALECIRAIAEKKADAVTLDGGMVFEAGRDPYKLRPVAAEIYGTKESPQTHYYAVAVVKKGSNFQLDQLQGRKSCHTGLGRSAGWIIPMGILRPYLSWTESLEPLQGAVAKFFSASCVPCIDRQAYPNLCQLCKGEGENQCACSSREPYFGYSGAFKCLQDGAGDVAFVKETTVFENLPEKADRDQYELLCLNNSRAPVDAFKECHLAQVPSHAVVARSVDGKEDLIWKLLSKAQEKFGKNKSRSFQLFGSPPGQRDLLFKDSALGFLRIPSKVDSALYLGSRYLTTLKNLRETAEEVKARYTRVVWCAVGPEEQKKCQQWSQQSGQNVTCATASTTDDCIVLVLKGEADALNLDGGYIYTAGKCGLVPVLAENRKSSKHSSLDCVLRPTEGYLAVAVVKKANEGLTWNSLKDKKSCHTAVDRTAGWNIPMGLIVNQTGSCAFDEFFSQSCAPGADPKSRLCALCAGDDQGLDKCVPNSKEKYYGYTGAFRCLAEDVGDVAFVKNDTVWENTNGESTADWAKNLNREDFRLLCLDGTRKPVTEAQSCHLAVAPNHAVVSRSDRAAHVKQVLLHQQALFGKNGKNCPDKFCLFKSETKNLLFNDNTECLAKLGGRPTYEEYLGTEYVTAIANLKKCSTSPLLEACAFLTR
As to B1, the “stress-evoked cfos mRNA in the dorsal raphe nucleus” value is “reduce”.
